Results from article PMC7345789.
Changes are numbered by the printed parent chain. Values belong to the binder of their own block, whether it stands above or below them.

Molecular target: Gab2 (Homo sapiens)
Assay: flow

B4: SHP2 N-SH2, Q06124 (protein)
chain: WFHPNITGAEAENLLLTRGVDGSFLARPSKSNPGDFTLSVRRNGAVTHIKIQNTGDYYDLYGGEKFATLAELVQYYMEHHGQLKEKNGDVIELKYPL
Kd: 160 nM

B6: SHP2 N-SH2, Q06124 (protein)
chain: B4 chain with A9V, A67G
Kd: 170 nM

B7: SHP2 N-SH2, Q06124 (protein)
chain: B4 chain with A9V, V40A
Kd: 230 nM

B8: SHP2 N-SH2, Q06124 (protein)
chain: B4 chain with A9V, L83A
Kd: 730 nM

B12: SHP2 N-SH2, Q06124 (protein)
chain: B4 chain with A9V, L14A
Kd: 170 nM

B15: SHP2 N-SH2, Q06124 (protein)
chain: B4 chain with A9V, I49V
Kd: 150 nM

B16: SHP2 N-SH2, Q06124 (protein)
chain: B4 chain with A9V, L69A
Kd: 210 nM

B19: SHP2 N-SH2, Q06124 (protein)
chain: B4 chain with A9V, L60A
Kd: 860 nM

B20: SHP2 N-SH2, Q06124 (protein)
chain: B4 chain with A9V, V73A
Kd: 190 nM

B23: SHP2 N-SH2, Q06124 (protein)
chain: B4 chain with A9V, V90A
Kd: 130 nM

The next binders have a lower Kd than those just listed; values first:

Kd: 120 nM
B14: SHP2 N-SH2, Q06124 (protein)
chain: B4 chain with A9V, T54S

Kd: 110 nM
B18: SHP2 N-SH2, Q06124 (protein)
chain: B4 chain with A9V, T68S

Kd: 110 nM
B22: SHP2 N-SH2, Q06124 (protein)
chain: B4 chain with A9V, A70G

Kd: 100 nM
B2: SHP2 N-SH2, Q06124 (protein)
chain: B4 chain with A9V, I91V

Kd: 100 nM
B3: SHP2 N-SH2, Q06124 (protein)
chain: B4 chain with A9V, V20A

Kd: 100 nM
B5: SHP2 N-SH2, Q06124 (protein)
chain: B4 chain with A9V, T17S

Kd: 80 nM
B10: SHP2 N-SH2, Q06124 (protein)
chain: B4 chain with I6V, A9V

Kd: 80 nM
B17: SHP2 N-SH2, Q06124 (protein)
chain: B4 chain with T7S, A9V

Kd: 70 nM
B13: SHP2 N-SH2, Q06124 (protein)
chain: B4 chain with A9V, A45G

Kd: 70 nM
B21: SHP2 N-SH2, Q06124 (protein)
chain: B4 chain with A9V, A26G

Kd: 30 nM
B1: SHP2 N-SH2, Q06124 (protein)
chain: B4 chain with A9V, I51V

Kd: 10 nM
B11: SHP2 N-SH2, Q06124 (protein)
chain: B4 chain with A9V, T47S

Kd: 5 nM
B9: SHP2 N-SH2, Q06124 (protein)
chain: B4 chain with A9V, T37S
